Results published in the supplement of paper PMC9170038.

Tested on: K4 kissing-loop RNA reporter
Assay: apparent KD of K4 kissing-loop reporter; higher = weaker reporter binding
Conditions: Eterna round: R107; input ligand: none
Protocol: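 RNA-MaP round R107: designed RNA switches with theophylline, tryptophan, arginine or FMN aptamers are transcribed on-chip within common flanks. They are titrated with a labelled K4 kissing-loop RNA reporter in RNA-MaP buffer (100 mM Tris pH 7.5, 80 mM KCl, 4 mM MgCl2), without ligand or with the indicated ligand. Median apparent KD per design.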
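Also: bound reporter read as fluorescence of individual clusters on recovered sequencing chips by microscopy, with normalized cluster intensities fitted with a binding model.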

Sequence | apparent KD of K4 kissing-loop reporter
AAAAGCCAGCAAGGAUAUACGCGCGAAGCAUCCAUGGUGCCAGUUCCAGUGAUGUUGGACCACAUCGUAGAAGGUGCGCGGCUCA [theeternabot_sameState_KL_FMN_B_33] | 266 nM
CGCAGUGAUGUUGCUAUUAUUCUUGGUUAACGAGGACCGGUACGGCCGCCACUCGAUGUCUGUCUAGUCCAGUGUUUUUUUGAGU [whbob_EX_Tryp_A_t8] | 506 nM
UAAUAAAUUCCAGCGAUGUCACUCUUCGAAGGAGCGGACGAAAGUCCAGGUAGGUCGCGAAGAGUGAUGUUCUUCGCGGCGCUGG [Omei KL Arginine A Exc A v3] | 183 nM
UGACAUUGCUCAGAUACCAGACUUGAGGAUCACCCAAGUGCCAAAUAAACGUACAUAAAAGUCCCUUGGCAGCUGAGCAAUGUCU [TheoBX 11] | 41.3 nM

Same assay, conditions: Eterna round: R107; input ligand: theophylline 20 uM

Sequence | apparent KD of K4 kissing-loop reporter
CCUAUCUCGUACGAUACCAGACUAUGAUCUUUGAUCAAUGCCAUCACCGAGUGAUGUUCGGUCCCUUGGCAGCGUAUGAGAUGGG [#12 K4 Theophylline B Exclusion] | 202 nM
GGCACUUUUGGUAGGAACCAUCUACCUCUAUAGGAUAUGCCGAAAGGCAGAAGGAUAGACCUACAGAGUGAUGUUCUGCGUGCCU | 203 nM
AAAAUAAUCCAGUGAUGUUGGUGUCCAGAUACCAGCGACGAAAGUCGCCCUUGGCAGCUGUGGACGUACAAAAUAAGUACGUCCU | 251 nM
AAAACUAUCAGAAGGAGCGUGGAAUAUUCAUCUAUAUUUAAUACGAGUGAUGUUCGUAAUUCACAGGUAGGUCGCUGAUCAAUAA [JR_ExcArginiB_Sub007] | 273 nM
UUGAUAUGAUAGUAUCCUGUUUGAUAAAGGCAGGAUAUCGAAAAUUCGAGAAGGGCCAUUAUAUGCAGUGAUGUUGCAAAUAAGU [Exclusion FMN A Gf 24] | 69 nM
GCCGUACGCAUGGAUACCAGUCUACAUCGCAGUGAUGUUGCGUAGUUCAGAUUAACUGCCGACCCUUGGCAGCCAUGCGUACGGC | 118 nM
AAAUUCUUUUUUUUAUUUAACUUUUCAGAAGGAGCGUGGUAGUACACAGGUAGGUCGCUGAAUAUAAGACUAGUGAUGUUAGUUA [JR_SSArginiA_Sub009] | 215 nM
GCAGGACGAGGAGGAGGAUGAAUUACUGAAGGAGCGCAUAUUGUUGCAGGUAGGUCGCGGUAAACAAGUAUAGUGAUGUUAUAUC [SSArgA.O] | 695 nM
UGACUGGAUGGAAGGAGCGCUAAACUCCUAGUGAUGUUAGGGAAACGAGACAAAGUCUCGAAGCAGGUAGGUCGCCAUCUAGUCU [FiskerMod 14 - Jieux - Same State - Arginine B] | 146 nM
AGUACAAUGGCGGCCGCCACUCAACGCAGAUCAAAGAUCUGCAUUCACUCAGUGAUGUUGAGUGAGAGGACCGGGCCUUUGUACA [Omei KL Tryp B SS B v1] | 580 nM
AACUCUCACUGGAGUGAUGUUCUGGAAAACCGAGGACCGGUACGGCCGCCACUCGGAAAUGAGAGAGUCCUACGAAAAGUAGGAC [Omei inspired 1] | 255 nM
GGUGUUGUUUGUGCUGUUUUCCUCGUUCCUCGAGGACCGGUACGGCCGCCACUCGAGUGAUGUUUGGGUAGCGAUCCUUGUUAGU [Bdazzled - #7 Exc. Tryptophan A] | 264 nM
GUGGAAUUAUGAAAGUGGUUUUAUUAGGAAGGAGCGGCCGAAAGGCCAGGUAGGUCGCCUAUUGACAGUGAUGUUGUUAUAUGGU [#14] | 204 nM
AAGUCAUAGGCAGGAUAUGCUUAGUAAUAAGGCCAUAUAUACGUAUAGAGUGAUGUUUUGUACCAGGCAGAAGGGCUACAUCAGU [FMN B Excl V8 (+2A)] | 532 nM
CGUGAGUGCCGUCAGUCAUCGGUCCAUGCACGAGGACCGGUACGGCCGCCACUCGAGCGUGGCAGUGAUGUUGCCAGCGCACUAA [KL-XTryp-A12] | 112 nM
AAAAGCCAGCAAGGAUAUACGCGCGAAGCAUCCAUGGUGCCAGUUCCAGUGAUGUUGGACCACAUCGUAGAAGGUGCGCGGCUCA [theeternabot_sameState_KL_FMN_B_33] | 224 nM
CGCAGUGAUGUUGCUAUUAUUCUUGGUUAACGAGGACCGGUACGGCCGCCACUCGAUGUCUGUCUAGUCCAGUGUUUUUUUGAGU [whbob_EX_Tryp_A_t8] | 579 nM
UAAUAAAUUCCAGCGAUGUCACUCUUCGAAGGAGCGGACGAAAGUCCAGGUAGGUCGCGAAGAGUGAUGUUCUUCGCGGCGCUGG [Omei KL Arginine A Exc A v3] | 204 nM
UGACAUUGCUCAGAUACCAGACUUGAGGAUCACCCAAGUGCCAAAUAAACGUACAUAAAAGUCCCUUGGCAGCUGAGCAAUGUCU [TheoBX 11] | 99 nM

Same assay, conditions: Eterna round: R107; input ligand: tryptophan 2.4 mM

Sequence | apparent KD of K4 kissing-loop reporter
CCUAUCUCGUACGAUACCAGACUAUGAUCUUUGAUCAAUGCCAUCACCGAGUGAUGUUCGGUCCCUUGGCAGCGUAUGAGAUGGG [#12 K4 Theophylline B Exclusion] | 155 nM
GGCACUUUUGGUAGGAACCAUCUACCUCUAUAGGAUAUGCCGAAAGGCAGAAGGAUAGACCUACAGAGUGAUGUUCUGCGUGCCU | 211 nM
AAAAUAAUCCAGUGAUGUUGGUGUCCAGAUACCAGCGACGAAAGUCGCCCUUGGCAGCUGUGGACGUACAAAAUAAGUACGUCCU | 431 nM
AAAACUAUCAGAAGGAGCGUGGAAUAUUCAUCUAUAUUUAAUACGAGUGAUGUUCGUAAUUCACAGGUAGGUCGCUGAUCAAUAA [JR_ExcArginiB_Sub007] | 171 nM
UUGAUAUGAUAGUAUCCUGUUUGAUAAAGGCAGGAUAUCGAAAAUUCGAGAAGGGCCAUUAUAUGCAGUGAUGUUGCAAAUAAGU [Exclusion FMN A Gf 24] | 43.6 nM
GCCGUACGCAUGGAUACCAGUCUACAUCGCAGUGAUGUUGCGUAGUUCAGAUUAACUGCCGACCCUUGGCAGCCAUGCGUACGGC | 120 nM
AAAUUCUUUUUUUUAUUUAACUUUUCAGAAGGAGCGUGGUAGUACACAGGUAGGUCGCUGAAUAUAAGACUAGUGAUGUUAGUUA [JR_SSArginiA_Sub009] | 165 nM
GCAGGACGAGGAGGAGGAUGAAUUACUGAAGGAGCGCAUAUUGUUGCAGGUAGGUCGCGGUAAACAAGUAUAGUGAUGUUAUAUC [SSArgA.O] | 416 nM
UGACUGGAUGGAAGGAGCGCUAAACUCCUAGUGAUGUUAGGGAAACGAGACAAAGUCUCGAAGCAGGUAGGUCGCCAUCUAGUCU [FiskerMod 14 - Jieux - Same State - Arginine B] | 155 nM
AGUACAAUGGCGGCCGCCACUCAACGCAGAUCAAAGAUCUGCAUUCACUCAGUGAUGUUGAGUGAGAGGACCGGGCCUUUGUACA [Omei KL Tryp B SS B v1] | 189 nM
AACUCUCACUGGAGUGAUGUUCUGGAAAACCGAGGACCGGUACGGCCGCCACUCGGAAAUGAGAGAGUCCUACGAAAAGUAGGAC [Omei inspired 1] | 139 nM
GGUGUUGUUUGUGCUGUUUUCCUCGUUCCUCGAGGACCGGUACGGCCGCCACUCGAGUGAUGUUUGGGUAGCGAUCCUUGUUAGU [Bdazzled - #7 Exc. Tryptophan A] | 441 nM
GUGGAAUUAUGAAAGUGGUUUUAUUAGGAAGGAGCGGCCGAAAGGCCAGGUAGGUCGCCUAUUGACAGUGAUGUUGUUAUAUGGU [#14] | 94.3 nM
AAGUCAUAGGCAGGAUAUGCUUAGUAAUAAGGCCAUAUAUACGUAUAGAGUGAUGUUUUGUACCAGGCAGAAGGGCUACAUCAGU [FMN B Excl V8 (+2A)] | 544 nM
CGUGAGUGCCGUCAGUCAUCGGUCCAUGCACGAGGACCGGUACGGCCGCCACUCGAGCGUGGCAGUGAUGUUGCCAGCGCACUAA [KL-XTryp-A12] | 89.4 nM
AAAAGCCAGCAAGGAUAUACGCGCGAAGCAUCCAUGGUGCCAGUUCCAGUGAUGUUGGACCACAUCGUAGAAGGUGCGCGGCUCA [theeternabot_sameState_KL_FMN_B_33] | 274 nM
CGCAGUGAUGUUGCUAUUAUUCUUGGUUAACGAGGACCGGUACGGCCGCCACUCGAUGUCUGUCUAGUCCAGUGUUUUUUUGAGU [whbob_EX_Tryp_A_t8] | 228 nM
UAAUAAAUUCCAGCGAUGUCACUCUUCGAAGGAGCGGACGAAAGUCCAGGUAGGUCGCGAAGAGUGAUGUUCUUCGCGGCGCUGG [Omei KL Arginine A Exc A v3] | 174 nM
UGACAUUGCUCAGAUACCAGACUUGAGGAUCACCCAAGUGCCAAAUAAACGUACAUAAAAGUCCCUUGGCAGCUGAGCAAUGUCU [TheoBX 11] | 33.4 nM
